We go through 1 molecule from US12576029B2, “Noncompetitive receptor-targeted vaccine delivery to plasmacytoid dendritic cells” (Washington University, priority 2022, dated 2026).

The test system of the assay is pDC. Briefly: pDC fraction after FLT3L injection in mice. As to conditions: after 7 days. The assay is classed as in vivo. An excerpt: Inbred mice and distribution of dendritic cells: BL/6, SV129 and […] inbred mouse lines were obtained from Jackson Laboratory (Bar Harbor, ME) The distribution of dendritic cells were examined using flow cytometry by using fluorochrome-conjugated monoclonal antibodies. Briefly, cells from spleen and liver were isolated from the mice and stained using fluorophore labeled antibodies. Cells were then fixed using 4% paraformaldehyde and analyzed by flow cytometry.
Further, the amount of pDC fraction was found inducible with injection of FMS-like tyrosine kinase 3 ligand in mice after 7 days (FIG. 2A-2B). Incubation of bone marrow differentiation culture with mouse transferrin for 7 days enhanced CD71 expression and pDC fraction (FIG. 2C-2D).

B1: FMS-like tyrosine kinase 3 ligand: FMS-like tyrosine kinase 3 ligand injected in mice to induce pDC fraction (protein, UniProt P49771 27-235, looked up)
Fms-related tyrosine kinase 3 …: TQDCSFQHSPISSDFAVKIRELSDYLLQDYPVTVASNLQDEELCGGLWRLVLAQRWMERLKTVAGSKMQGLLERVNTEIHFVTKCAFQPPPSCLRFVQTNISRLLQETSEQLVALKPWITRQNFSRCLELQCQPDSSTLPPPWSPRPLEATAPTAPQPPLLLLLLLPVGLLLLAAAWCLHWQRTRRRTPRPGEQVPPVPSPQDLLLVEH
In the case of B1, the pDC fraction entry is “inducible”. Further, for the setting “listed as FLT3L”, the pDC fraction entry is “inducible upregulation”.
